Source: PMC2719696, “Kinetics and Cellular Site of Glycolipid Loading Control the Outcome of Natural Killer T Cell Activation” (Immunity, 2009)

T1: mCD1d (Mus musculus, UniProt P11609)
T1 sequence (P11609 22-305 limits assumed): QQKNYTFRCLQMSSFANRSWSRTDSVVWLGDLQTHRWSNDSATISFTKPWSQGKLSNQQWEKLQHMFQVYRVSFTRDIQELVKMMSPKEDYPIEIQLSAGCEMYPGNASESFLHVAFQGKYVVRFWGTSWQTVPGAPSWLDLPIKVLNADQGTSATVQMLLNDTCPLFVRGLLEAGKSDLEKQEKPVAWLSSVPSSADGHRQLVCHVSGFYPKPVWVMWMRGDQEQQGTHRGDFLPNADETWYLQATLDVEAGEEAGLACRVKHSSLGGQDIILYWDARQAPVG
T1 sequence (P01887 21-119 partner): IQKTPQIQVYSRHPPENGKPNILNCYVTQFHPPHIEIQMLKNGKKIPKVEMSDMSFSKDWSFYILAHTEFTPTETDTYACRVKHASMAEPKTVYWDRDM


Columns and labels:
iNKT cells = assay: In vivo activation of iNKT cells by i.p. glycolipid injection; serum cytokines by capture ELISA; details: C57BL/6 mice, i.p. 4 nmoles
From the text: (§1) Figure 1 Synthetic Analogs of αGalCer (A) Structures and nomenclature of iNKT cell-activating αGalCer analogs used in this study. The nomenclature used in most cases is based on the identity of the amide-linked acyl group in the ceramide moiety. Acyl carbon chain length and number of unsaturations are indicated by the names of most analogs, with exceptions being OCH (which has a C24 saturated acyl chain) and the compounds with amide-linked prostaglandin B1 (PGB1) or 4-fluorophenyl acetate (4FPA) groups. The phytosphingosine base is 18 carbons in length for all analogs except OCH, which has a nine-carbon base. (B) Hybridoma DN3A4.1-2 (Vβ8.2^+) was stimulated with each of the αGalCer analogs at a range of concentrations with JAWS II cells as APCs, and the amounts of IL-2 production were analyzed. Potencies of glycolipids are shown as 1/EC50 (as defined in Figure S1). […] Concentrations of IFN-γ, IL-4, and IL-12p70 were determined in serum by capture ELISA. “ND” stands for not detected. […]
(§2) For in vitro stimulation, murine iNKT hybridomas at 5 × 10^4 cells/well in 96-well plates were stimulated with an equal number of either JAWS II cells or transfected A20 cells in complete medium with glycolipids for 12 hr at 37°C, and levels of murine IL-2 secretion were determined. […] Subsequently the levels of IL-4, IL-13, and IFN-γ in culture supernatants were quantified by capture ELISA. […]

BALB/c splenocytes = assay: Mouse splenocyte stimulation with glycolipids, IL-4, IL-13 and IFN-γ in supernatants; format: cell-based; details: 48 hr
From the text: as §1, §2

mCD1d = target: T1, mCD1d; assay: In vitro CD1d loading assay with immobilized mCD1d, saposins or Triton X-100, DN32.D3 hybridoma IL-2 readout; format: biochemical; details: saposin 10 μg/ml, glycolipid αGalCer-C26:0
Method: Figure 5 Lack of Detergent-like Cofactor Dependence of Th2 Cell-Type Cytokine-Biasing αGalCer Analogs (A) Glycolipids were incubated for 24 hr at 37°C with murine CD1d proteins in the absence (top row) or presence (bottom row) of 0.05% Triton X-100. The resulting complexes were assembled as tetramers and used for staining mouse iNKT hybridoma DN3A4.1-2. The dashed line histograms show background staining with unloaded tetramers, and the bold histograms show staining with glycolipid loaded tetramers. (B) The same analysis as in (A) except with human CD1d tetramers, which were also used for DN3A4.1-2 staining. (C) Glycolipids at various concentrations were incubated with immobilized mCD1d protein for 2 hr in pH 7.0 or pH 5.0 buffers with no additives (medium) or in the same buffers containing the indicated purified recombinant saposins (10 μg/ml) or Triton X-100 (0.05%). After washing, DN32.D3 iNKT hybridoma cells were added and supernatant concentrations of IL-2 were determined after an additional 14 hr of incubation. All results shown (A, B, and C) were representative of at least two independent experiments.
To extend these observations to a more physiological model, we tested the effects of purified recombinant saposin A, B, C, and D proteins on loading of αGalCer analogs.
Recombinant murine CD1d proteins at 4 μg/ml in 50 μl PBS were coated on the surfaces of microtiter plate wells for 2 hr at 37°C and then washed with PBS for removal of unbound proteins. Subsequently, various concentrations of glycolipids in 0.1 M sodium phosphate buffer (pH 7.0) or 0.1 M sodium citrate buffer (pH 5.0) containing 150 mM NaCl were incubated with or without 0.05% Triton X-100 or recombinant purified human saposins A, B, C, or D at 10 μg/ml for another 2 hr at 37°C. Saposins were produced and purified as described ([Yuan et al., 2007]). After extensive washing with PBS and media, 5 × 10^4 murine iNKT hybridoma DN32.D3 cells were added in 200 μl of complete medium and incubated at 37°C for 14 hr. Supernatants were analyzed for murine IL-2 by capture ELISA.

| activity of purified saposin in enabling loading of αGalCer-C26:0 onto mCD1d (mCD1d) | Molecule | activity in vivo (serum cytokines) (iNKT cells) | Th2 cell-type cytokine bias (ratios of IL-13 or IL-4 to IFN-γ) (BALB/c splenocytes) |
| --- | --- | --- | --- |
| – | CCCCCCCCCCCCCCC(O)C(O)C(COC1OC(CO)C(O)C(O)C1O)NC(=O)Cc1ccc(F)cc1 (stereo not drawn) [αGalCer-4FPA] | minimal activity in vivo | pronounced Th2 cell-type biasing effect in vitro |
| strongly active | Saposin B: recombinant purified human saposin B, lipid transfer protein (protein, UniProt P07602 195-273, looked up, Saposin-B, recombinant purified human saposin B, lipid transfer protein) Saposin-B: GDVCQDCIQMVTDIQTAVRTNSTFVQALVEHVKEECDRLGPGMADICKNYISQYSEIAIQMMMHMQPKEICALVGFCDE | – | – |
| minimal or no activity | saposin D: recombinant purified human saposin D (protein, UniProt P07602 405-486, looked up, Saposin-D) Saposin-D: DGGFCEVCKKLVGYLDRNLEKNSTKQEILAALEKGCSFLPDPYQKQCDQFVAEYEPVLIEILVEVMDPSFVCLKIGACPSAH | – | – |
| minimal or no activity | saposin A: recombinant purified human saposin A (protein, UniProt P07602 60-142, looked up, Saposin-A) Saposin-A: SLPCDICKDVVTAAGDMLKDNATEEEILVYLEKTCDWLPKPNMSASCKEIVDSYLPVILDIIKGEMSRPGEVCSALNLCESLQ | – | – |
| minimal or no activity | saposin C: recombinant purified human saposin C (protein, UniProt P07602 311-390, looked up, Saposin-C) Saposin-C: SDVYCEVCEFLVKEVTKLIDNNKTEKEILDAFDKMCSKLPKSLSEECQEVVDTYGSSILSILLEEVSPELVCSMLHLCSG | – | – |
